Experimental data taken from patent publication US7772181B2, “Personal care compositions comprising modified variant Bowman Birk Protease Inhibitors” (Danisco US Inc., priority 2008, dated 2010).
Substitutions are numbered along the chain they refer to. Names may count otherwise.

T1: bovine pancreatic trypsin (Bos taurus, UniProt P00760)
T1 construct: purchased Worthington (Worthington Biochemical Corp.)
T1 sequence (P00760 24-246): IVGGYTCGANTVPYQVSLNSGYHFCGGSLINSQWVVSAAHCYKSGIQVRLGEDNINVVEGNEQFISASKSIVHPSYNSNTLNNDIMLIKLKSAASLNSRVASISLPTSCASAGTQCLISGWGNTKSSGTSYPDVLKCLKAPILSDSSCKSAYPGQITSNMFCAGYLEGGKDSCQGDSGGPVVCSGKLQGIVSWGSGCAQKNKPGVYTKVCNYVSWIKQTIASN

B1: BBIt-AV-4D13 insert -A13I-L29P-A40K-F50T-V52A: modified variant BBPI, SEQ ID NO:413 (protein)
chain: DPDDEPSKPCCDPDPDDESSKPCCDQCICTKSNPPQCRCSDMRPNSCHSACKSCKCYNLYGWTCTCADITDFCYEPCKPSE
modifications: synthetic BBPI sequence
B2: V52L: BBIt-AV (SEQ ID NO:187) with single substitution V52L (protein)
chain: DDESSKPCCDQCACTKSNPPQCRCSDMRLNSCHSACKSCACYNLYGWTCFCLDITDFCYEPCKPSE
modifications: synthetic BBIt-AV sequence
B3: BBIdb-AV: BBdb with CK37281 replacing the second protease inhibitory loop, SEQ ID NO:452 (protein)
chain: DPSESSKPCCDQCACTKSIPPQCRCTDVRLNSCHSACSSCACYNLYGWTCVCVDMKDFCYEPCK
modifications: synthetic BBdb-AV sequence
B4: BBIsb3-AV: BBsb3 with CK37281 replacing the second protease inhibitory loop, SEQ ID NO:453 (protein)
chain: DPDDEYSKPCCDLCMCTRSMPPQCSCEDIRLNSCHSDCKSCACYNLYGWTCRCLDTNDFCYKPCKSRDD
modifications: synthetic BBsb3-AV sequence
B5: BBIt-AV-Q11G-A13I-L29P-A40K-F50T-V52A: modified variant BBPI, SEQ ID NO:614 (protein)
chain: DPDDESSKPCCDGCICTKSNPPQCRCSDMRPNSCHSACKSCKCYNLYGWTCTCADITDFCYEPCKPSE
modifications: synthetic BBPI variant
B6: BBIt-AV-A13I-L29K-A40K-F50T-V52A: modified variant BBPI, SEQ ID NO:620 (protein)
chain: B5 chain with G13Q, P31K
modifications: synthetic BBPI variant
B7: BBIt-AV-S5P-A13I-L29P-A40K-F50T-V52A: modified variant BBPI, SEQ ID NO:613 (protein)
chain: B5 chain with S7P, G13Q
modifications: synthetic BBPI variant
B8: BBIt-AV-A13I-S25R-L29P-S31R-A40K-F50T-V52A: modified variant BBPI, SEQ ID NO:618 (protein)
chain: B5 chain with G13Q, S27R, S33R
modifications: synthetic BBPI variant
B9: BBIt-AV-A13I-L29P-S31R-A40K-F50T-V52A: modified variant BBPI, SEQ ID NO:622 (protein)
chain: B5 chain with G13Q, S33R
modifications: synthetic BBPI variant
B10: BBIt-AV-A13I-S25R-L29P-S31A-A40K-F50T-V52A: modified variant BBPI, SEQ ID NO:617 (protein)
chain: B5 chain with G13Q, S27R, S33A
modifications: synthetic BBPI variant
B11: BBIt-AV-A13I-L29P-A40K-F50K-V52A: modified variant BBPI, SEQ ID NO:624 (protein)
chain: B5 chain with G13Q, T52K
modifications: synthetic BBPI variant
B12: BBIt-AV-A13L-L29P-A40K-F50T-V52A: modified variant BBPI, SEQ ID NO:615 (protein)
chain: B5 chain with G13Q, I15L
modifications: synthetic BBPI variant
B13: BBIt-AV-A13I-S25R-L29P-A40K-F50T-V52A: modified variant BBPI, SEQ ID NO:616 (protein)
chain: B5 chain with G13Q, S27R
modifications: synthetic BBPI variant
B14: BBItc-AV: BBtc with CK37281 replacing the second protease inhibitory loop, SEQ ID NO:454 (protein)
chain: DPSSKWEACCDRCACTKSIPPQCHCADIRLNSCHSACESCACYNLYGWTCRCFDITDFCYKPCSG
modifications: synthetic BBtc-AV sequence

What was measured:
[1] = target: T1, bovine pancreatic trypsin; test: Shake flask screen: trypsin inhibition after growth, 2-mercaptoethanol activation and acid/heat treatment; assay type: biochemical; conditions: for trypsin inhibitory activity after activation: alternative scaffolds compared with BBIt-AV
Method: To increase expression, the gene copy of the selected clones was amplified by sequentially streaking colonies on Luria agar plates with 25 μg/ml chloramphenicol until the growth rate was similar to growth on Luria agar plates without chloramphenicol. Cultures of the selected variants and controls were grown in 3 ml Luria broth with 25 μg/ml chloramphenicol in 15 ml tubes for ˜10 h. These cultures (30 μl) were then used to inoculate 30 ml of MBD medium in 250 ml baffled shake flasks and grown at 37° C. and 225 rpm for ˜60 h.
For selection of the variants with the best yields, the culture broths were processed as follows. The broth was first activated by mixing 20 ml of broth with 20 ml of 0.25 M glycine buffer (pH 9.3) and the pH was adjusted to 9.0 with 50% NaOH. Then, 2-mercaptoethanol was added to the diluted cultures to a final concentration of 2 mM and the cultures were incubated overnight at room temperature with gentle shaking. The BBIt-AV moiety was then cleaved from the fusion protein by acid/heat treatment, which was accomplished by first adjusting the pH of the activated broth to pH 1.9-2.0 with sulfuric acid, and followed by incubation at 60° C. for 16 hours, with shaking. The BBIt-AV-BCE fusion protein and the BCE catalytic domain are not soluble at pH 2, whereas the free BBI species is soluble. After the cleavage reaction, the insoluble material was removed by centrifugation (5 min. at 3,000 rpm) and the supernatant was analyzed for trypsin inhibitory activity as described above. The BBI activity was also determined for the starting material and for the samples taken after activation. The BCE activity of the starting material was also determined as described above. The BBIt-AV:BCE activity ratios were then calculated for each step in process. The modified BBIt-AVs produced at the highest yields following the acid/heat treatment were selected for further study.

[2] = target: T1, bovine pancreatic trypsin; test: BBIt-AV:BCE activity ratio, microtiter plate screens (primary, quadruplicate secondary); assay type: biochemical; conditions: single substitution in BBIt-AV, in the presence of reducing agent
Method: The cultures in each master plate were thawed and a pin replicator was used to inoculate a new sterile microtiter plate containing 150 μl of Luria broth with 5 μg/ml chloramphenicol in each well. The plates were grown for ˜10 hrs in a humidified and aerated box as described above. For controls, the cultures in two wells were replaced with BBI and BBI-AV cultures that had been grown concurrently in 15 ml culture tubes (5 ml of Luria broth with 5 μg/ml chloramphenicol). After the cultures were grown, the plate was used to inoculate two duplicate 96-well filter plates (Millipore, MSGV2210) containing 150 μl of MBD medium (Vogtentanz et al., 2007) with 5 μg/ml chloramphenicol in each well by using a pin replicator. The duplicate plates were grown for ˜14 hours (as above, with plastic spacers placed between the stacked plates to allow for efficient air flow around the plates) and then 2-mecaptoethanol was added to each well in one of the plates to a final concentration of 2 mM. The plates were then grown for an additional ˜46 hours. The 96-well filter plates containing the culture broth (with or without added 2-mecaptoethanol) were then assayed for BBI and BCE activity.
Libraries were analyzed using dilutions of cultures grown in 96-well plates. Typically, the culture broth from each well was diluted (200 fold) in Assay Buffer (100 mM Tris pH 8.6, 0.005% Tween 80) and transferred to a second microtiter plate (CoStar 9017, Corning, Inc., Corning, N.Y.). Then, 20 μl of the diluted samples were transferred to a third microtiter plate. A standard curve was created by adding 20, 10, 5 or 2.5 μl of the diluted sBBI (SEQ ID NO:13) control culture to empty wells. Then, 80 μL of 50 ng/ml trypsin (bovine pancreatic trypsin, Worthington Biochemical Corp., Lakewood, N.J.) (prepared from a 1 mg/mL stock solution diluted into Assay Buffer) was added to each well of the plate. The reactions were mixed and incubated 15 min at room temperature. After the incubation, 100 μL of 0.5 mg/ml trypsin substrate (succinyl-Ala-Ala-Pro-Arg-para-nitroanilide, Bachem Bioscience, Inc., King of Prussia, Pa.), diluted in Assay Buffer from a 100 mg/ml solution in DMSO, was added to each well, mixed, and the absorbance at 405 nm was monitored for 15 min, with 1 time point recorded every 12 sec using a Spectra Max 250 (Molecular Devices). The data points were used to determine the rate for each reaction. The standard curve was generated by plotting the reaction rate versus the BBI volume and was fitted to a four-parameter equation. All data fitting was done using software supplied by the manufacturer (Molecular Devices Corp., Sunnyvale, Calif.). The activity of each BBIt-AV variant was calculated from the standard curve. Thus, the activities of all modified variant proteins were determined relative to the activity in the sBBI control (BBI-WT) culture.
The concentration of BCE was determined by an activity assay using purified BCE as a standard as described above and by (Vogtentanz et al. 2007). For the analysis of libraries grown in 96-well microtiter plates, 20 μl of culture broth were transferred to each well of a new microtiter plate. A standard curve was created by adding 20, 10, 5 or 2.5 μl of the diluted BBI-WT control culture to these empty wells. Then, 180 μl of the BCE substrate (0.25 μg/ml in Assay Buffer), 4-nitrophenyl β-D-cellobioside (Sigma, St. Louis, Mo.), was added to the plate. The plate was mixed and the absorbance at 405 nm monitored for 15 min, with 1 time point recorded every 12 s using a Spectra Max 250 (Molecular Devices Corp., Sunnyvale, Calif.). The data points were used to determine the rate for each reaction. The standard curve was generated by plotting rate versus culture volume and was fit to a quadratic curve. The BCE concentration in each variant culture was determined relative to the standard control culture. […]

| Molecule | yield after acid/heat treatment relative to BBIt-AV-A13I-L29P-A40K-F50T-V52A (SEQ ID NO:601) [1] | also measured |
| --- | --- | --- |
| B1 | slightly better yields |  |
| B2 |  | activation level (BBIt-AV:BCE activity ratio after reducing agent) ([1]; single substitutions in BBIt-AV): activate to similar levels; relative activity of the amino acid substitution (BBI:BCE activity ratio vs BBIt-AV), amino acid present in BBIsb3-AV [2]: L (+) |
| B3 |  | inhibitory activities after acid/heat treatment relative to BBIt-AV ([1]; alternative scaffolds): higher inhibitory activities after acid/heat treatment; trypsin inhibitory activity after activation [1]: greater than that of the BBIt-AV inhibitor but less than that of the BBItc-AV inhibitor |
| B4 |  | activation with reducing agent ([1]; alternative scaffolds): did not activate with reducing agent; trypsin inhibitory activity after activation [1]: very low trypsin inhibitory activity |
| B5 | significantly lower yields |  |
| B6 | significantly lower yields |  |
| B7 | significantly lower yields |  |
| B8 | significantly better yields |  |
| B9 | significantly better yields |  |
| B10 | significantly better yields |  |
| B11 | slightly better yields |  |
| B12 | slightly better yields |  |
| B13 | significantly better yields |  |
| B14 |  | inhibitory activities after acid/heat treatment relative to BBIt-AV ([1]; alternative scaffolds): higher inhibitory activities after acid/heat treatment; trypsin inhibitory activity after activation [1]: highest trypsin inhibitory activity after activation |
